Assay results as given in patent US20190048095A1 (BIO THERA SOLUTIONS, published 2019).

B1: Batansine-0806 (anti-TROP2 antibody BAT0806 conjugated with 3AA-MDC) (antibody)
light: DIQLTQSPSSLSASVGDRVSITCKASQDVSIAVAWYQQKPGKAPKLLIYSASYRYTGVPDRFSGSGSGTDFTLTISSLQPEDFAVYYCQQHYITPLTFGAGTKVEIKRTVAAPSVFIFPPSDEQLKSGTASVVCLLNNFYPREAKVQWKVDNALQSGNSQESVTEQDSKDSTYSLSSTLTLSKADYEKHKVYACEVTHQGLSSPVTKSFNRGEC
heavy: not shown
modifications: 3AA-MDC (batansine maytansinoid-linker) on cysteine thiols freed by partial TCEP reduction; positions not given
B2: Batansine-0808 (anti-TROP2 antibody BAT0808 conjugated with 3AA-MDC) (antibody, human IgG1, kappa)
light: B1 light
heavy: not shown
modifications: 3AA-MDC on site-mutated (engineered) cysteine(s); position not printed for this antibody; glycan with fucose content of 0-5%
B3: Batansine-0807 (anti-TROP2 antibody BAT0807 conjugated with 3AA-MDC) (antibody, human IgG1, kappa)
light: B1 light
heavy: not shown
modifications: 3AA-MDC on site-mutated (engineered) cysteine(s); position not printed for this antibody
B4: BAT0806-CL2A-SN-38 (anti-TROP2 antibody BAT0806 conjugated with CL2A-SN-38) (antibody, human IgG1, kappa)
light: B1 light
heavy: not shown
modifications: CL2A-SN-38 on cysteine thiols freed by TCEP reduction; positions not given

What was measured:
[1] = target: T1, TROP2 (TACSTD2), on TROP2 positive human tumor cell lines MDA-MB-468, A431 and N87 (human, UniProt P09758 27-323); experiment: cell-based or functional assay
T1 sequence (looked up): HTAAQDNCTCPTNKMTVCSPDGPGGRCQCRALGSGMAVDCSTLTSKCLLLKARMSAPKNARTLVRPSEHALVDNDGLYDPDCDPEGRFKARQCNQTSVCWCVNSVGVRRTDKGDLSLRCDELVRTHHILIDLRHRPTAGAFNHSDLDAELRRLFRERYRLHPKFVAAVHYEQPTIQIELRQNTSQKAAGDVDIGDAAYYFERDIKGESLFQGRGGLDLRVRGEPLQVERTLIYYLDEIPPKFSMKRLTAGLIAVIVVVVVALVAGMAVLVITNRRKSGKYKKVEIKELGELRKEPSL

[2] = target: T1, TROP2 (TACSTD2), on TROP2 positive …; experiment: cell-based or functional assay; remark: listed apart in the source

Binder | EC50 (nM), synergistic ADCC, A431 with PBMC (PBMC cell:target cell 10:1) [1] [nM] | EC50, proliferation inhibition of A431 cells (CCK8, 72 h) [2] [nM] | EC50, proliferation inhibition of MDA-MB-468 cells (CCK8, 72 h) [2] [nM] | EC50, proliferation inhibition of N87 cells (CCK8, 72 h) [2] [nM] | EC50 (nM), cell proliferation, A431 [1] [nM] | EC50 (nM), cell proliferation, MDA-MB-468 [1] [nM] | EC50 (nM), cell proliferation, N87 [1] [nM] | EC50 (nM), synergistic ADCC, A431 with PBMC (PBMC cell:target cell 5:1) [1] [nM]
B1 | 0.006 | 0.53 | 3.21 | 0.34 | – | – | – | –
B2 | 0.001 | 1.53 | 5.61 | 1.47 | 2.89 | 1.95 | 0.56 | –
B3 | 0.011 | 1.73 | 2.89 | 0.77 | – | – | – | –
B4 | – | – | – | – | 1.26 | 1.84 | 1.84 | 0.143
